Results as given in the supplement of paper PMC7125110.
± gives the standard error. For part of these data: Variants at the floor of the assay were thinned out.

B1: glmS ribozyme (parent)
chain: AUAAAAGCGCCAGAACUACAGAAAUGUAGUUGACGAGGAGGAGGUUUAUCGAAUUUUCGGCGGAUGCCUCCAAA

Experiments:
Details in all cases: with glucosamine-6-phosphate
glucosamine-6-phosphate [1] = variants of: B1; assay: kcat; higher = faster cleavage; RNA array
Summary of the method: (§1)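 kobs was derived by fitting per-tile medians to one- or two-exponential decays after normalising signals to baseline and to non-cleaving reference variants. Those signals came from barcoded ribozyme variants transcribed in situ by E. coli RNA polymerase on sequenced MiSeq chips, followed through a hybridised Cy3 probe at 37 °C and imaged over ~14 h. Glucosamine-6-phosphate (40 μM to 10 mM) in HEPES/KCl/Mg(OAc)2 buffer was flowed in. Weighted Michaelis–Menten fits across concentrations then gave kcat and KM.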

glucosamine-6-phosphate [2] = variants of: B1; assay: KM; higher = weaker cofactor use; RNA array
Summary of the method: as §1

glucosamine-6-phosphate [3] = variants of: B1; assay: self-cleavage kobs at 40 uM GlcN6P; higher = faster cleavage; RNA array
Summary of the method: as §1

glucosamine-6-phosphate [4] = variants of: B1; assay: self-cleavage kobs at 160 uM GlcN6P; higher = faster cleavage; RNA array
Summary of the method: as §1

glucosamine-6-phosphate [5] = variants of: B1; assay: self-cleavage kobs at 640 uM GlcN6P; higher = faster cleavage; RNA array
Summary of the method: as §1

glucosamine-6-phosphate [6] = variants of: B1; assay: self-cleavage kobs at 2500 uM GlcN6P; higher = faster cleavage; RNA array
Summary of the method: as §1

glucosamine-6-phosphate [7] = variants of: B1; assay: self-cleavage kobs at 10000 uM GlcN6P; higher = faster cleavage; RNA array
Summary of the method: as §1

| Variant | kcat (glucosamine-6-phosphate [1]) | KM (glucosamine-6-phosphate [2]) | self-cleavage kobs at 40 uM GlcN6P (glucosamine-6-phosphate [3]) | self-cleavage kobs at 160 uM GlcN6P (glucosamine-6-phosphate [4]) | self-cleavage kobs at 640 uM GlcN6P (glucosamine-6-phosphate [5]) | self-cleavage kobs at 2500 uM GlcN6P (glucosamine-6-phosphate [6]) | self-cleavage kobs at 10000 uM GlcN6P (glucosamine-6-phosphate [7]) |
| --- | --- | --- | --- | --- | --- | --- | --- |
| A39U U47C | 0.00869 ± 0.002 s⁻¹ | 1870 ± 580 µM | 0.000213 ± 4.3e-05 s⁻¹ | 0.000748 ± 0.0002 s⁻¹ | 0.00198 ± 0.00032 s⁻¹ | 0.00471 ± 0.00098 s⁻¹ | 0.00934 ± 0.0026 s⁻¹ |
| A39G A64G | 0.127 ± 0.027 s⁻¹ | 5960 ± 1400 µM | 0.000853 ± 0.00016 s⁻¹ | 0.00322 ± 0.00052 s⁻¹ | 0.0131 ± 0.0018 s⁻¹ | 0.0328 ± 0.0078 s⁻¹ | 0.0876 ± 0.026 s⁻¹ |
| G40U G59A | < 1e-05 s⁻¹ | – | – | < 1e-05 s⁻¹ | < 1e-05 s⁻¹ | – | – |
| G40U G41A | 0.000118 ± 3.1e-06 s⁻¹ | 1380 ± 130 µM | – | – | 3.9e-05 ± 1.1e-05 s⁻¹ | 7.51e-05 ± 9.8e-06 s⁻¹ | 0.000104 ± 9.9e-06 s⁻¹ |
| A39C U56G | 0.00414 ± 0.0013 s⁻¹ | 4460 ± 1800 µM | 5.55e-05 ± 7.3e-06 s⁻¹ | 0.000133 ± 1.4e-05 s⁻¹ | 0.000539 ± 6.5e-05 s⁻¹ | 0.00125 ± 0.00015 s⁻¹ | 0.00322 ± 0.00035 s⁻¹ |
| A39U G59A | 2.27e-05 ± 2.6e-06 s⁻¹ | – | – | – | – | – | – |
| G38U A64U | < 1e-05 s⁻¹ | – | < 1e-05 s⁻¹ | – | < 1e-05 s⁻¹ | < 1e-05 s⁻¹ | – |
| A39C A48C | 7.62e-05 ± 2.8e-06 s⁻¹ | 3440 ± 350 µM | – | – | – | 3.1e-05 ± 1.1e-05 s⁻¹ | 5.69e-05 ± 9.4e-06 s⁻¹ |
| G41A U45C | 0.0002 ± 3.8e-05 s⁻¹ | 303 ± 140 µM | – | 6.67e-05 ± 1.8e-05 s⁻¹ | 0.000158 ± 3.6e-05 s⁻¹ | 0.000154 ± 3.9e-05 s⁻¹ | 0.000372 ± 0.00017 s⁻¹ |
| G40A U57A | 3.08e-05 ± 6.4e-06 s⁻¹ | – | < 1e-05 s⁻¹ | < 1e-05 s⁻¹ | – | 3.99e-05 ± 1.3e-05 s⁻¹ | 2.63e-05 ± 9.5e-06 s⁻¹ |
| G40C C71U | 0.00477 ± 0.0015 s⁻¹ | 1730 ± 780 µM | 0.000198 ± 2.6e-05 s⁻¹ | 0.000335 ± 4.3e-05 s⁻¹ | 0.00124 ± 0.00014 s⁻¹ | 0.00328 ± 0.00041 s⁻¹ | 0.00384 ± 0.00053 s⁻¹ |
| G40C U56C | 6.61e-05 ± 9.2e-06 s⁻¹ | – | < 1e-05 s⁻¹ | < 1e-05 s⁻¹ | – | 4.67e-05 ± 2e-05 s⁻¹ | 5.45e-05 ± 8.6e-06 s⁻¹ |
| G40U U47G | 0.000765 ± 0.00012 s⁻¹ | 908 ± 250 µM | 4.04e-05 ± 1e-05 s⁻¹ | 0.000115 ± 2.6e-05 s⁻¹ | 0.000262 ± 5.2e-05 s⁻¹ | 0.000699 ± 0.00013 s⁻¹ | 0.000681 ± 0.00011 s⁻¹ |
| A39G A42U | 0.000818 ± 0.00016 s⁻¹ | 1510 ± 540 µM | 4.94e-05 ± 1.9e-05 s⁻¹ | 7.49e-05 ± 2.2e-05 s⁻¹ | 0.00023 ± 5.4e-05 s⁻¹ | 0.00045 ± 0.00014 s⁻¹ | 0.000751 ± 0.00014 s⁻¹ |
